Where no end group is shown, it is not given here.
Tests used:
biotin-Vpr52-96 (HIV-1) = biotin-Vpr52-96 (HIV-1) (UniProt P69726); test: SPR, Langmuir isotherm, ANT104-116 on biotinylated Vpr52-96
[1] = target: T1, adenine nucleotide translocator (ANT), purified native protein (rat, UniProt Q05962 2-298); test: SPR, ANT over immobilized Vpr52-96
T1 construct: mature; Used detergent-solubilized (SPR), reconstituted in liposomes or planar bilayers, or inside mitochondria (pull-down); also called adenine nucleotide translocase; ADP/ATP carrier
T1 sequence: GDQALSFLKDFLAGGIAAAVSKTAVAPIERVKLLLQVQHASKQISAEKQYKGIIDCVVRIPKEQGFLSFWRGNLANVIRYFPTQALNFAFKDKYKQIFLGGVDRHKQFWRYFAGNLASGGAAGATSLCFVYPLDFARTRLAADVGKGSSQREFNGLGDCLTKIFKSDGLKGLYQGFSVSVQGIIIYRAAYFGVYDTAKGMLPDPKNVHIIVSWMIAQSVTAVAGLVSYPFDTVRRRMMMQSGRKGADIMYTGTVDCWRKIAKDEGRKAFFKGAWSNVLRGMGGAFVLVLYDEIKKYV

[2] = target: T1, adenine nucleotide translocator (ANT), …; test: not stated (summary of the inventors' findings)

Work on ANT-2-derived peptide ANT104-116 yielded a Kd (biotin-Vpr52-96 (HIV-1)) of 35000 nM.

B1: biotin-Vpr52-96 (peptide)
peptide: DTWAGVEAIIRILQQLLFIHFRIGCRHSRIGVTRQRRARNGASRS
modifications: also: biotin, position not given here
notes: range 52-96; Synthetic biotinylated peptide, immobilized for SPR and used as bait in the avidin-agarose pull-down; also called biotinylated Vpr52-96; immobilized Vpr C-terminal moiety
B1 showed a Kd [1] of 9.7 nM.

B2: Vpr protein of HIV-1 (14 Kd; 96 aa) (other)
chain: MEQAPEDQGPQREPHNEWTLELLEELKNEAVRHFPRIWLHGLGQHIYETYGDTWAGVEAIIRILQQLLFIHFRIGCRHSRIGVTRQRRARNGASRS
notes: also called HIV-1 Viral protein R
For B2, the Kd [2] was 1 nM.
